Earlier results on 1 substance are cited in PMC7337057.

One data set addresses Glu120 (UniProt position 120, VGREQERRGHF). The experiment in a line: NMR (solid-state). The conditions noted are these: not stated for this study (around 0 °C is stated for related SSNMR work from the same laboratory); 0.2 μM K+; K+ titrated at constant pH and ionic strength (value not stated); low ambient K+ (0.2 μM): K+-apo, collapsed selectivity filter, pH gate favoured open.

The next data set addresses Glu118 (UniProt position 118, WFVGREQERRG). Kind of data set: NMR (solid-state). Conditions: not stated for this study (around 0 °C is stated for related SSNMR work from the same laboratory); 0.2 μM K+; K+ titrated at constant pH and ionic strength (value not stated); low ambient K+ (0.2 μM): K+-apo, collapsed selectivity filter, pH gate favoured open.

Take “KcsA potassium channel (pH-gated K+ channel) (Streptomyces lividans)”: the pKa result in the data set with Glu120 and with Glu118 was “above 7.5” each time.
